Target: TrkB receptor (mouse neuromuscular junction) (mouse) (UniProt P15209)
Experiment: cell-based or functional assay

Sequence of UniProt P15209 (P15209 32-821): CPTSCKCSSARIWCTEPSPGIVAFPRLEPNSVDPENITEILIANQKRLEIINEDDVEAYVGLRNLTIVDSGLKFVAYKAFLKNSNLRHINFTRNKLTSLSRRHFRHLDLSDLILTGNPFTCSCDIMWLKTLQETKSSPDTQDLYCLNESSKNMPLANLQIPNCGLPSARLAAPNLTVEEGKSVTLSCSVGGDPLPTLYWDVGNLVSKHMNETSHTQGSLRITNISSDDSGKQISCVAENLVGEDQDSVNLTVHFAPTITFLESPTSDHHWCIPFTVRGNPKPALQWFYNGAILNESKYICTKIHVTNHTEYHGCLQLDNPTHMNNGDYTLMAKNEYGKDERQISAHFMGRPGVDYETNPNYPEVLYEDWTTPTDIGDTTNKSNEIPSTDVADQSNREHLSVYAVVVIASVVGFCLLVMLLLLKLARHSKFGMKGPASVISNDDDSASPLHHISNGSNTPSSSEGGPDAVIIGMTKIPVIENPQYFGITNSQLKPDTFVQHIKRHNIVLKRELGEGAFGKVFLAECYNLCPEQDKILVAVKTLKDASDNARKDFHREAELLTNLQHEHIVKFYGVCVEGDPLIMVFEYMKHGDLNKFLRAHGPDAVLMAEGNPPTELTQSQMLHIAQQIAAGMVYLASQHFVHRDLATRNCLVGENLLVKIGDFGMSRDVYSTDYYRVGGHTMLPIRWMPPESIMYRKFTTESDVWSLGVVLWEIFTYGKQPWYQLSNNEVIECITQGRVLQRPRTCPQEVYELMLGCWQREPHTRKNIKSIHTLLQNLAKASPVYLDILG

Row | Substance | elevation in the level of GFP-TTC concentration at the NMJ (100 ng BDNF) [fold] | elevation in the level of GFP-TTC concentration at the NMJ (250 ng BDNF) [fold] | increase of GFP-TTC signal at the NMJ after BoTx/A block [fold] | GFP-TTC localization at the NMJ [fold]
1 | recombinant human BDNF (Alomone labs) (from UniProt P23560 129-247) (ligand) | 1.72 | 1.15 | 2.05 | 
2 | recombinant human NT-4 (Alomone labs) (from UniProt P34130 81-210) (ligand) |  |  |  | 1.54
